From US20090298772A1 (UNIVERSITY OF CHICAGO, published 2009)

B1: MLL peptide 2-18 (peptide)
peptide: AHSCRWRFPARPGTTGG
notes: Synthetic peptide
B2: MLL peptide 3-18 (peptide)
peptide: HSCRWRFPARPGTTGG
notes: Synthetic peptide
B3: MLL peptide 4-18 (peptide)
peptide: SCRWRFPARPGTTGG
notes: Synthetic peptide
B4: MLL peptide 5-18 (peptide)
peptide: CRWRFPARPGTTGG
notes: Synthetic peptide
B5: MLL peptide 2-14 (peptide)
peptide: AHSCRWRFPARPG
notes: Synthetic peptide
B6: MLL peptide 3-14 (peptide)
peptide: HSCRWRFPARPG
notes: Synthetic peptide
B7: MLL peptide 4-14 (peptide)
peptide: SCRWRFPARPG
notes: Synthetic peptide
B8: MLL 5-14 peptide (peptide)
peptide: CRWRFPARPG
notes: Synthetic peptide; also called MLL peptide 5-14
B9: MLL peptide 1-13 (peptide)
peptide: MAHSCRWRFPARP
notes: Synthetic peptide
B10: MLL peptide 1-14 (peptide)
peptide: MAHSCRWRFPARPG
notes: Synthetic peptide
B11: MLL peptide 1-18 (peptide)
peptide: MAHSCRWRFPARPGTTGG
notes: Synthetic peptide
B12: MLL peptide 1-22 (peptide)
peptide: MAHSCRWRFPARPGTTGGGGGG
notes: Synthetic peptide
B13: MLL peptide 1-26 (peptide)
peptide: MAHSCRWRFPARPGTTGGGGGGGRRG
notes: Synthetic peptide
B14: MLL peptide 1-30 (peptide)
peptide: MAHSCRWRFPARPGTTGGGGGGGRRGLGGG
notes: Synthetic peptide

Molecular target: T1, menin (endogenous, 293 cell lysate) (UniProt O00255 1-610)
T1 construct: Endogenous protein of transfected 293 cells (a human cell line); Co-immunoprecipitated with FLAG-MLL 1-330; also called endogenous menin; product of the MEN1 tumor suppressor gene
T1 sequence (looked up): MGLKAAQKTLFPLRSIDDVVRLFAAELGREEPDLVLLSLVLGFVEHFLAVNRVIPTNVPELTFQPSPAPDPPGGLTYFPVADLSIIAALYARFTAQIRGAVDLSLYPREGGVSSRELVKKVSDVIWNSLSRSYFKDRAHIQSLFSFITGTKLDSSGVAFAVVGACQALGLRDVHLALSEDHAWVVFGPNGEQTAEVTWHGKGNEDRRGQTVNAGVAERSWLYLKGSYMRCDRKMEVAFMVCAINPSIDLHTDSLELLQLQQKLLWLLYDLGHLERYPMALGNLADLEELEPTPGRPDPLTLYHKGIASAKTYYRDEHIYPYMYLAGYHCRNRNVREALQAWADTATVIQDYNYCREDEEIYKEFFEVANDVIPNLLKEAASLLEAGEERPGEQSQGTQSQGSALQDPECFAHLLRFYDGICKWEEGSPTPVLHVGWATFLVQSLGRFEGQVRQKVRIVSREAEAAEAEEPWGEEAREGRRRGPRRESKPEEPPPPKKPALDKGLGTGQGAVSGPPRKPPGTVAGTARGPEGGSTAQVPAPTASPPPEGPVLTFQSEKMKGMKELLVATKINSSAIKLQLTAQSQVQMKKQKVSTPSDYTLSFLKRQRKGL
Assay: competition with FLAG-MLL 1-330 for endogenous menin, co-IP / Western blot (FIG. 1); binding to menin shown only by blocking
Excerpt: Cell lysates were immunoprecipitated with anti-FLAG antibody (Sigma), separated by SDS-PAGE and blotted with an anti-menin antibody (Bethyl Laboratories Inc. or Santa-Cruz).

Binder	binding result
B1	binds
B2	binds
B3	binds
B4	binds
B5	binds
B6	binds
B7	binds
B8	binds
B9	binds
B10	binds
B11	binds
B12	binds
B13	binds
B14	binds
